The data set concerns the molecule itself. As to the kind of experiment: SEC-MALS. On the technique in general: In gel filtration, larger molecules generally elute earlier.

For orientation: stoichiometry N means the number of molecules, sites or subunits per partner or assembly.

B1: BOR1 from Arabidopsis thaliana (AtBOR1), purified in DDM, GFP-8His tag cleaved (natural protein)
chain: not shown
Turning to B1, the “stoichiometry N” value came to 2.

For the origin of these results see PMC7366829 (Acta biomaterialia, 2020).
